According to patent publication US7534592 (Takeda / Millennium, dated 2009):

Target: the molecule itself
Experiment: analytical size-exclusion chromatography; self-association (homodimer)

B1: recombinant ACC2 catalytic domain (carboxyltransferase domain of human Acetyl-Coenzyme A Carboxylase 2, residues 1715-2483 of SEQ. ID No. 1) with a … (enzyme)
chain: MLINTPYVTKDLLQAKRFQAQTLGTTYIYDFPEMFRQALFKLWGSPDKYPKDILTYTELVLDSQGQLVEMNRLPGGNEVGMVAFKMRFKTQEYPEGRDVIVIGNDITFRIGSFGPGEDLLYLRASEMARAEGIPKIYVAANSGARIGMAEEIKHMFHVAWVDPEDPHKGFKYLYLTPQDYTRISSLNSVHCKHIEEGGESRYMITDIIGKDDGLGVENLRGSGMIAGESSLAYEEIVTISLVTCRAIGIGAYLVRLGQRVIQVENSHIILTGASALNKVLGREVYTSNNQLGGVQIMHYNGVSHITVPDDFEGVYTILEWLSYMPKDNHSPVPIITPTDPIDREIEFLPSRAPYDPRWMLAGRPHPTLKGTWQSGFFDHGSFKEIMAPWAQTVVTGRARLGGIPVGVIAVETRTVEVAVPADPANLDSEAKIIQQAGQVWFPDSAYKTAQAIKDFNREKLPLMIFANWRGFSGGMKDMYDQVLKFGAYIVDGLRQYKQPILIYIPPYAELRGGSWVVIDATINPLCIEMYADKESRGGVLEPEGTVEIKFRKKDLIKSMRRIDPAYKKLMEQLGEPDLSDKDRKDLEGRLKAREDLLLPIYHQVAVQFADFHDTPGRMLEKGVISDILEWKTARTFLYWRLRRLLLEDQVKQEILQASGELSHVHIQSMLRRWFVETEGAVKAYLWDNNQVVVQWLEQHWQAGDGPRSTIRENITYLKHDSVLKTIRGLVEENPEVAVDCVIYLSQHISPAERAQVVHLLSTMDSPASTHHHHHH
modifications: one acetylation observed by mass spectrometry (position not given)
notes: The entries describe its self-association into the homodimer (two copies of this chain); Expressed in Sf9 insect cells; In the crystal it is in complex with acetyl-CoA, a small molecule; also called carboxyltransferase domain of ACC2; ID No. 3
B1: binds.
